In IntAct's records for PubMed 26188084:

B1: SCL-interrupting locus protein (Homo sapiens), Q15468 (parent)
chain: MEPIYPFARPQMNTRFPSSRMVPFHFPPSKCALWNPTPTGDFIYLHLSYYRNPKLVVTEKTIRLAYRHAKQNKKNSSCFLLGSLTADEDEEGVTLTVDRFDPGREVPECLEITPTASLPGDFLIPCKVHTQELCSREMIVHSVDDFSSALKALQCHICSKDSLDCGKLLSLRVHITSRESLDSVEFDLHWAAVTLANNFKCTPVKPIPIIPTALARNLSSNLNISQVQGTYKYGYLTMDETRKLLLLLESDPKVYSLPLVGIWLSGITHIYSPQVWACCLRYIFNSSVQERVFSESGNFIIVLYSMTHKEPEFYECFPCDGKIPDFRFQLLTSKETLHLFKNVEPPDKNPIRCELSAESQNAETEFFSKASKNFSIKRSSQKLSSGKMPIHDHDSGVEDEDFSPRPIPSPHPVSQKISKIQPSVPELSLVLDGNFIESNPLPTPLEMVNNENPPLINHLEHLKPLQPQLYDEKHSPEVEAGEPSLRGIPNQLNQDKPALLRHCKVRQPPAYKKGNPHTRNSIKPSSHNGPSHDIFEKLQTVSAGNVQNEEYPIRPSTLNSRQSSLAPQSQPHDFVFSPHNSGRPMELQIPTPPLPSYCSTNVCRCCQHHSHIQYSPLNSWQGANTVGSIQDVQSEALQKHSLFHPSGCPALYCNAFCSSSSPIALRPQGDMGSCSPHSNIEPSPVARPPSHMDLCNPQPCTVCMHTPKTESDNGMMGLSPDAYRFLTEQDRQLRLLQAQIQRLLEAQSLMPCSPKTTAVEDTVQAGRQMELVSVEAQSSPGLHMRKGVSIAVSTGASLFWNAAGEDQEPDSQMKQDDTKISSEDMNFSVDINNEVTSLPGSASSLKAVDIPSFEESNIAVEEEFNQPLSVSNSSLVVRKEPDVPVFFPSGQLAESVSMCLQTGPTGGASNNSETSEEPKIEHVMQPLLHQPSDNQKIYQDLLGQVNHLLNSSSKETEQPSTKAVIISHECTRTQNVYHTKKKTHHSRLVDKDCVLNATLKQLRSLGVKIDSPTKVKKNAHNVDHASVLACISPEAVISGLNCMSFANVGMSGLSPNGVDLSMEANAIALKYLNENQLSQLSVTRSNQNNCDPFSLLHINTDRSTVGLSLISPNNMSFATKKYMKRYGLLQSSDNSEDEEEPPDNADSKSEYLLNQNLRSIPEQLGGQKEPSKNDHEIINCSNCESVGTNADTPVLRNITNEVLQTKAKQQLTEKPAFLVKNLKPSPAVNLRTGKAEFTQHPEKENEGDITIFPESLQPSETLKQMNSMNSVGTFLDVKRLRQLPKLF
partner: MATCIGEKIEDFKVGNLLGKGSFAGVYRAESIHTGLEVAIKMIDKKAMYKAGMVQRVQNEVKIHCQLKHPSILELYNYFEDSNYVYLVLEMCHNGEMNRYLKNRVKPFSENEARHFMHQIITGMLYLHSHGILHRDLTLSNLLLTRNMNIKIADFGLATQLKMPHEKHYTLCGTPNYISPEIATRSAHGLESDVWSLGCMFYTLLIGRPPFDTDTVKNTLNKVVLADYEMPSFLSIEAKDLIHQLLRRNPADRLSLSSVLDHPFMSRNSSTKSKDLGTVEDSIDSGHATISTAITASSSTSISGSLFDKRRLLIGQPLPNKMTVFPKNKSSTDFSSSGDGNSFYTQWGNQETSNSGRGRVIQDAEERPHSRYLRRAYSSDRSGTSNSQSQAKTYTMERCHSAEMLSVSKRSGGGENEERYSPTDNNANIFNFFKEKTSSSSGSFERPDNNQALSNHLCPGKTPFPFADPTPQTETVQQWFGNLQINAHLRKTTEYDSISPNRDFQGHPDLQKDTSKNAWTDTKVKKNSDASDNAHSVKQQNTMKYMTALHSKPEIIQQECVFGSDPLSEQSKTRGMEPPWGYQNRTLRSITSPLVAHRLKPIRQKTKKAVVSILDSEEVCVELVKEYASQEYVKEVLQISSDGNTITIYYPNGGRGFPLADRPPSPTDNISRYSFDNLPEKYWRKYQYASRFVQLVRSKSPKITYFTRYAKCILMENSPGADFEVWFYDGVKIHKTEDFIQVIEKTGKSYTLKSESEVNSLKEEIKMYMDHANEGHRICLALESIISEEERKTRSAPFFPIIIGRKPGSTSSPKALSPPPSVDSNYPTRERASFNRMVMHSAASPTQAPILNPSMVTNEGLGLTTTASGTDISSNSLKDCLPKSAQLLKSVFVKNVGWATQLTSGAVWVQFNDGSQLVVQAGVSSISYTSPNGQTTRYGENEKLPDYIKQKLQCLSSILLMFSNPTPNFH
B2: Serine/threonine-protein kinase PLK4 (Homo sapiens), O00444 (parent)
chain: B1 partner
partner: B1 chain

Variants of: B1
Conditions: with plk4_human PLK4, O00444

Row | effect of a mutation on the interaction | Variant
1 | with no effect | L733D;L736E;L743D
2 | with no effect | L733Y;L743Y
3 | with no effect | L733D;L736E;I740K;L743D
4 | decreasing interaction strength | L733D;L743D
5 | with no effect | L733D;I740K;L743D
6 | decreasing interaction strength | Q737K;Q739E
7 | with no effect | L733E;I740E;L743E

Variants of: B2
Conditions: with stil_human STIL

Row | effect of a mutation on the interaction | Variant
8 | with no effect | S285A;T289A
